{"source": "paper PMC11546159", "molecular_target": "HLA-A*02:01 on the surface of T2 cells", "test": "FACS, anti-HLA antibody staining of peptide-pulsed T2 cells (% HLA-A*02+)", "conditions": "peptide 50 μM", "key": {"[1]": {"conditions": "parent: est. 77, read off a plot"}}, "data": [{"substance": "HPV16 E6 29-38 peptide C9A", "values": [{"measurement": "response", "setting": "parent: 79", "result": 60, "unit": "%"}, {"measurement": "response", "setting": "[1]", "result": 58, "unit": "%"}]}, {"substance": "HPV16 E6 29-38 peptide D4A", "values": [{"measurement": "response", "setting": "parent: 79", "result": 1.9, "unit": "%"}]}, {"substance": "HPV16 E6 29-38 peptide E8A", "values": [{"measurement": "response", "setting": "parent: 79", "result": 74, "unit": "%"}, {"measurement": "response", "setting": "[1]", "result": 76, "unit": "%"}]}, {"substance": "HPV16 E6 29-38 peptide H3A", "values": [{"measurement": "response", "setting": "parent: 79", "result": 84, "unit": "%"}, {"measurement": "response", "setting": "[1]", "result": 81, "unit": "%"}]}, {"substance": "HPV16 E6 29-38 peptide I2A", "values": [{"measurement": "response", "setting": "parent: 79", "result": 2, "unit": "%"}]}, {"substance": "HPV16 E6 29-38 peptide I5A", "values": [{"measurement": "response", "setting": "parent: 79", "result": 33, "unit": "%"}, {"measurement": "response", "setting": "[1]", "result": 34, "unit": "%"}]}, {"substance": "HPV16 E6 29-38 peptide I6A", "values": [{"measurement": "response", "setting": "parent: 79", "result": 71, "unit": "%"}, {"measurement": "response", "setting": "[1]", "result": 69, "unit": "%"}]}, {"substance": "HPV16 E6 29-38 peptide L7A", "values": [{"measurement": "response", "setting": "parent: 79", "result": 2.4, "unit": "%"}]}, {"substance": "HPV16 E6 29-38 peptide T1A", "values": [{"measurement": "response", "setting": "parent: 79", "result": 79, "unit": "%"}, {"measurement": "response", "setting": "[1]", "result": 79, "unit": "%"}]}, {"substance": "HPV16 E6 29-38 peptide V10A", "values": [{"measurement": "response", "setting": "parent: 79", "result": 2, "unit": "%"}]}]}
